Data on three molecules can be found in patent publication US20210261648A1 (published 2021).

Experiment [1] addresses T1, FcγRIIb extracellular domain with C-terminal His tag (human, UniProt P31994 43-217).
T1 construct: extracellular domain; For crystallography it was expressed with kifunensine and trimmed with Endo F1; also called FcgRIIb; FcγRIIb extracellular region; not shown: His tag attached to the C terminus
T1 sequence (looked up): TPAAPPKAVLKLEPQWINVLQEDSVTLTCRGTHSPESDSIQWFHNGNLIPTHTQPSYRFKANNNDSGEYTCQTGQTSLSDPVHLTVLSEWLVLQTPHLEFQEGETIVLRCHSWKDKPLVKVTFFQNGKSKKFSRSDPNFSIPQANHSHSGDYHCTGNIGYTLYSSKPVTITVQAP
The experiment in a line: SPR; KD of IL6R-B3/IL6R-L divided by KD of the variant. For orientation: In SPR one partner is held on a chip, and binding of the other changes the refractive index at the surface.

The target of experiment [2] is T2, FcγRIIa type R extracellular domain with C-terminal His tag (human, UniProt P12318 34-217).
T2 chain: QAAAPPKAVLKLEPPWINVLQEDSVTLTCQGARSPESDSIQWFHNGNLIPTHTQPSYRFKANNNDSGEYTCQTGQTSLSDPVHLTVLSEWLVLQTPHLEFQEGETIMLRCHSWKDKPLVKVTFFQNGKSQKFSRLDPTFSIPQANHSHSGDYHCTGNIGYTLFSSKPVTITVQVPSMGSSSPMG
The experiment is described as above.

Experiment [3] concerns the target T1, FcγRIIb extracellular domain with …. In words: SPR (Biacore), antibody captured, FcγR as analyte.
Experiment [4] deals with T2, FcγRIIa type R extracellular domain …. The experiment in a line: SPR (Biacore), antibody captured, FcγR as analyte.
Experiment [5] has as its target T3, FcγRIa extracellular domain with C-terminal His tag (human, UniProt P12314 16-292).
T3 construct: also called FcgRIa; not shown: His tag attached to the C terminus
The experiment in a line: SPR (Biacore), antibody captured, FcγR as analyte.

In experiment [6] the target is T4, FcγRIIa type H extracellular domain with C-terminal His tag (human, UniProt P12318 34-217).
T4 construct: extracellular domain; also called FcγRIIaH; FcgRIIaH; not shown: His tag attached to the C terminus
T4 sequence (looked up): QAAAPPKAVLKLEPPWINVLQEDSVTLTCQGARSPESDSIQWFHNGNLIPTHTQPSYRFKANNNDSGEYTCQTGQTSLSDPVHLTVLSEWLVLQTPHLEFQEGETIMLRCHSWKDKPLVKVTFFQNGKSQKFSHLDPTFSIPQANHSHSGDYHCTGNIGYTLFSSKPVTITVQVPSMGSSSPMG
The experiment in a line: SPR (Biacore), antibody captured, FcγR as analyte.

The target in experiment [7] is T1, FcγRIIb extracellular domain with …. In words: SPR; KD for FcγRIIaH divided by KD for FcγRIIb.
For experiment [8] the target is unchanged. In words: SPR; KD for FcγRIIaR divided by KD for FcγRIIb.
Experiment [9] concerns the target T5, FcγRIIa type H extracellular domain with C-terminal His tag (human, UniProt P12318 34-217).
T5 construct: extracellular domain; also called FcgRIIaH; FcγRIIa H
T5 sequence (looked up): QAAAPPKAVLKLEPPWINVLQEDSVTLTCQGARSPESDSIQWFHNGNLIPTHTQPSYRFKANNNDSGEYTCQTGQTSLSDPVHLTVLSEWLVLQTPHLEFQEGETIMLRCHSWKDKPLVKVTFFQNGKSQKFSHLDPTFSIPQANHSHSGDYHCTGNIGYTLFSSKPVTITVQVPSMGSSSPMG
The experiment in a line: SPR (Biacore), relative amount of binding.

The target in experiment [10] is T6, FcγRIIb extracellular domain with C-terminal His tag (human, UniProt P31994 43-217).
T6 construct: extracellular domain; For crystals it was expressed with kifunensine and trimmed with Endo F1; also called FcgRIIb; FcγRIIb extracellular region
T6 sequence (looked up): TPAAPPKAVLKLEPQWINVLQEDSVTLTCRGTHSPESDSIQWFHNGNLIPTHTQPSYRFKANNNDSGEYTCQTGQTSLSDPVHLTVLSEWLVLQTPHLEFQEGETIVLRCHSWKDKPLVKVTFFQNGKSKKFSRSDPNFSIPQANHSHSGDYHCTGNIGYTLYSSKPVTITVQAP
In words: SPR (Biacore), relative amount of binding.

T3 sequence (P12314 16-292): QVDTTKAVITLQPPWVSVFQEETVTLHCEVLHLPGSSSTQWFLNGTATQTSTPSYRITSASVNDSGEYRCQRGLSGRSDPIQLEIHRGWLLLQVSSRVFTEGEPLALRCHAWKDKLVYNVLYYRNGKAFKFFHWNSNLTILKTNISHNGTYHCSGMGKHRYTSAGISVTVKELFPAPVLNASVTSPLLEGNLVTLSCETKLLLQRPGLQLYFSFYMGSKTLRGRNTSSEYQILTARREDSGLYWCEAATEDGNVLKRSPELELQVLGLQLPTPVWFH

B1: IL6R-BP563/IL6R-L (antibody, human IgG1, kappa)
heavy: QVQLQESGPGLVKPSETLSLTCAVSGHSISHDHAWSWVRQPPGEGLEWIGFISYSGITNYNPSLQGRVTISRDNSKNTLYLQMNSLRAEDTAVYYCARSLARTTAMDYWGEGTLVTVSSASTKGPSVFPLAPSSKSTSGGTAALGCLVKDYFPEPVTVSWNSGALTSGVHTFPAVLQSSGLYSLSSVVTVPSSSLGTQTYICNVNHKPSNTKVDKKVEPKSCDKTHTCPPCPAPDLLGDDSVFLFPPKPKDTLMISRTPEVTCVVVDVSEEDGDVKFNWYVDGVEVHNAKTKPREEQDNSTYRVVSVLTVLHQDWLNGKEYKCKVSNKALPRPIEKTISKAKGQPREPQVYTLPPSRDELTKNQVSLTCLVKGFYPSDIAVEWESNGQPENNYKTTPPVLDSDGSFFLYSKLTVDKSRWQQGNVFSCSVMHEALHNHYTQESLSLSP
light: not shown
notes: Anti-human IL-6R IgG1; alterations introduced into IL6R-B3 (G1d with K439E)
A word on the Kd: it is a measure of binding affinity in units of concentration. On to B1, for which the “KD(IIb) of the parent polypeptide/KD(IIb) of the altered polypeptide” value in experiment [1] amounted to 196. Also, the “KD(IIaR) of the parent polypeptide/KD(IIaR) of the altered polypeptide” value in [2] was determined as 2.4. The Kd was determined as 16 nM in [3], 460 nM in experiment [4], 12 nM in experiment [5] and 8.3 µM in experiment [6]. The “KD(IIaH)/KD(IIb)” value in experiment [7] worked out at 525. In addition, the “KD(IIaR)/KD(IIb)” value in [8] was determined as 29.1.

B2: IL6R-BP565/IL6R-L (antibody, human IgG1, kappa)
heavy: QVQLQESGPGLVKPSETLSLTCAVSGHSISHDHAWSWVRQPPGEGLEWIGFISYSGITNYNPSLQGRVTISRDNSKNTLYLQMNSLRAEDTAVYYCARSLARTTAMDYWGEGTLVTVSSASTKGPSVFPLAPSSKSTSGGTAALGCLVKDYFPEPVTVSWNSGALTSGVHTFPAVLQSSGLYSLSSVVTVPSSSLGTQTYICNVNHKPSNTKVDKKVEPKSCDKTHTCPPCPAPDLLGDDSVFLFPPKPKDTLMISRTPEVTCVVVDVAEEDGEVKFNWYVDGVEVHNAKTKPREEQDNSTYRVVSVLTVLHQDWLNGKEYKCKVSNKALPRPIEKTISKAKGQPREPQVYTLPPSRDELTKNQVSLTCLVKGFYPSDIAVEWESNGQPENNYKTTPPVLDSDGSFFLYSKLTVDKSRWQQGNVFSCSVMHEALHNHYTQESLSLSP
light: not shown
notes: as for B1
Turning to B2, in experiment [1], the “KD(IIb) of the parent polypeptide/KD(IIb) of the altered polypeptide” value stood at 565. For the same molecule, the “KD(IIaR) of the parent polypeptide/KD(IIaR) of the altered polypeptide” value in experiment [2] is 4.8. Besides, the Kd in experiment [3] is 5.5 nM; in experiment [4], 230 nM; in [5] it was 2.4 nM; in [6], 4.7 µM. Further, in experiment [7], the “KD(IIaH)/KD(IIb)” value was found to be 856. The “KD(IIaR)/KD(IIb)” value in experiment [8] was 41.5.

B3: B3 variant of GpH7-B3/GpL16-k0 with Leu at position 328 (EU numbering) substituted with Glu (antibody, human IgG1, kappa)
heavy: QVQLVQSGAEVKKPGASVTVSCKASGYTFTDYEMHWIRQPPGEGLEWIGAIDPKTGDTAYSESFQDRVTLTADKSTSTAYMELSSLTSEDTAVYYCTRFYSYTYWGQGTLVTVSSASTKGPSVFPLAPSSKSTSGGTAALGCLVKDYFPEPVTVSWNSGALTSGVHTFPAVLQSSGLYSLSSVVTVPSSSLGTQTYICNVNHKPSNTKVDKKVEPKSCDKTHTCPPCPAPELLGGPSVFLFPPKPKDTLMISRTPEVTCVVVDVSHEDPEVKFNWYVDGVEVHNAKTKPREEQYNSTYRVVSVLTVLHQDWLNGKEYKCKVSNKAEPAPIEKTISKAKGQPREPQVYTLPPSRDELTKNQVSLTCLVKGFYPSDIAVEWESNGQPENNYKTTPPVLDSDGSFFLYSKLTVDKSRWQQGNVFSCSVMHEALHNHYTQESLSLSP
light: DIVMTQSPLSLPVTPGEPASISCQASESLVHSNRNTYLHWYLQKPGQSPQLLIYKVSNRFSGVPDRFSGSGSGTDFTLKISRVEAEDVGVYYCSQNTHVPPTFGQGTKVEIERTVAAPSVFIFPPSDEQLKSGTASVVCLLNNFYPREAKVQWKVDNALQSGNSQESVTEQDSKDSTYSLSSTLTLSKADYEKHKVYACEVTHQGLSSPVTKSFNRGEC
notes: also called mutation B
As for B3, the binding result in experiment [9] and in experiment [10] was “binds” in each case.
